Results reported in the nanobody polyreactivity screen of Harvey et al. (2022).

Experiment: yeast display, Sf9 membrane polyspecificity reagent, FACS + sequencing; frameworks hold sequencing errors
Method in brief: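 A synthetic nanobody library was expressed on Saccharomyces cerevisiae BJ5465 by galactose induction for 36–48 hours. The library was stained for 1 hour at 4 °C with 10% biotinylated, detergent-solubilized Sf9 membrane reagent and enriched with streptavidin microbeads before FACS. Low and high (top ~1%) gates were set on anti-HA fluorescence for expression and streptavidin fluorescence for reagent binding, and each polyreactivity label reflects the gate of origin.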

Q: With “QVQLVESGGGLVQAGGSLRLSCAASGRIFYVYGMGWYRQAPGKERELVAAISKRGDNTYYADSVKGRFTISRDNAKNTVYLQMNSLKPEDTAVYYCAAKYNYSPRAGFNFWGQGTQVTVSS” as the sequence, how does the “polyreactivity (PSR sort gate)” value read?
A: high polyreactivity

Q: For “QVQLVESGGGLVQAGGSLRLSCAASGSIFYTYTMGWYRQAPGKERELVAAISTRGGSTYYADSVKGRFTISRDNAKNTFYLQMNSLKPEDTAVYYCAAGLQRYRMYYWGQGTQVTVSS”, which “polyreactivity (PSR sort gate)” value is on record?
A: high polyreactivity

Q: With “QVQLVESGGGLVQAGGSLRLSCAASGITFRYYAMGWYRQAPGKERELVAVITYSGSRTYYADSVKGRFTISRDNAKNTVYLQMNSLKPEDTAVYYGATKGAKRVIGETAYDYWGQGTQVTVSS” as the sequence, how does the “polyreactivity (PSR sort gate)” value read?
A: high polyreactivity

Q: Which “polyreactivity (PSR sort gate)” value does the source give for “QVQLVESGGGLVQAGGSLRLSCAASGGIFTKNAMGWYRQAPGKERELVAGISRTGGNTYYADSVKGRFTISRDNAKYTVYLQMNSLIPEDTAVYYCNALYGGPHRLRYDYWGQGTQVTVSS” here?
A: low polyreactivity

Q: With “QVQLVESGGGLVQAGGSLRLSCAASGIIFYGYAMGWYRQAPGKERELVAGISSGGSTYYADSVKGRFTISRDNAKNTVYLQMNSLKPEDTAVYYCNADGGYSYESTDHYGYDYWGQGTQVTVSS” as the sequence, how does the “polyreactivity (PSR sort gate)” value read?
A: low polyreactivity

Q: Which “polyreactivity (PSR sort gate)” value does the source give for “QVQLVESGGRLVQAGASLRLSCAASGFTFGGYAMGWYRQPHGKQRELVAAIDSSGGRTYNADSVKGRFTISRDNAKNTVYLQMNSLKPEDTAVYYCNAVYGSDGYDYWGQGTQVTVSS” here?
A: high polyreactivity

Q: Which “polyreactivity (PSR sort gate)” value does the source give for “QVQLVESGGGLVQAGGSLRLSCAASGSNFQYVYAMGWYRQAPGKERELVAAINGGSGSTYYADSVKGSFTISRDNAKNTVYLQMNSLKPEDTAVYYCNRDYEYPTYPHDYWGQGTQVTVSS” here?
A: low polyreactivity

Q: With “QVQLVESGGGLVQAGGSLRLSCAASGRTFGENAMGWYRQAPGKERELVAAITGGDSTNYADSVKGRFTISRDNAKNTVYLQMNSLKPEDTAVYYCAAYGVKVLWTLTTYDYWGQGTQVTVSS” as the sequence, how does the “polyreactivity (PSR sort gate)” value read?
A: low polyreactivity

Q: Which “polyreactivity (PSR sort gate)” value does the source give for “QVQLVESGGGLVQEGGSLRLSCAASGNTFKYYSMGWYRQAPGKERELVAAITWNGARTYYADSVKGRFTISRDNAKNTVYLQMNSLKPEDTAVYYCNARQGYRFDYWGQGTQVTVSS” here?
A: high polyreactivity

Q: Which “polyreactivity (PSR sort gate)” value does the source give for “QVQLVESGGGLVQAGGSLRLSCAASGFILNQYAMGWYRQAPGKERELVAAISNGGSTNYADSVKGRFTISRDNAKNTVYLQMNSLKPEDTAVYYCAKDQSLTYSSVWGYDYWGQGTQVTVSS” here?
A: low polyreactivity

Q: For “QVQLQESGGGMVQAGGSLRLTCAATGYISSCYPMRWYRQAPGKEREFVATIAPGATTYYADSVKGRFTISRDYAKNTVYLQMNSQKPEATAVYVCAAGPENIDFYSYWGQGTQVTVSS”, which “polyreactivity (PSR sort gate)” value is on record?
A: low polyreactivity

Q: Which “polyreactivity (PSR sort gate)” value does the source give for “QVQLVESGGGLVQAGGSLRLSCAASGRIFTAYTMGWYRQAPGKERELVAAISTSGTSTYYADSVKGRFTISRDNAKNTVYLQMNSLKPEDTAVYYCATDYYYYPHSQYDYWGQGTQVTVSS” here?
A: low polyreactivity

Q: For “QVQLVESGGGLVQAGGSLRLSCAASGFTSGRNTMGWYRQAPGKERELVAAISSSGGRTYYADSVKGRFTISRDNAKKTVYLQKHRLKAEDPAVYYCNVAGAIKRTIGDYEYWGQGTQVTVSS”, which “polyreactivity (PSR sort gate)” value is on record?
A: high polyreactivity

Q: For “QVQLVESGVGLVQAGGSLRLSCAASGSTFRGYAMGWYRQAPGKERELVAAISSSGGRTYYAYSVKGRFTISRDNAKNTVYLQMNSLKPEDTAVYYCNAASKNSVRYAYQNYDYWGQGTQVTVSS”, which “polyreactivity (PSR sort gate)” value is on record?
A: high polyreactivity

Q: For “QVQLVESGGGLVQAGGSLRLSCAASGSTFRYNAMGWYRQAPGKERELVAAISSSGGSTRYADSVKGRFTISRDNANNTVYLQMNSLKPEDTAVYYCAVRFYDWRYYYWGQGTQVTVSS”, which “polyreactivity (PSR sort gate)” value is on record?
A: high polyreactivity

Q: Which “polyreactivity (PSR sort gate)” value does the source give for “QVQLVESGGGLVQAGGSLRLSCAASGSTFDFNAMGWSRQAPGKERELVAAITYSGGSTYYADSVKGRFTISRDNAKNTVYLKMNSLKPEDTAVYYCAAEDVYPGSIDMDYWGQGTQVTVSS” here?
A: low polyreactivity

Q: For “QVQLVESGGGLVQAGGSLRLSCAASGSTFESNTMGWYIQAPGKERELVAAISYSGGRTYYADSVKGRFTISRDNAKNTVYLQMNSLKPEDTAVYYCAARTFRISRMDYWGQGTQVTESS”, which “polyreactivity (PSR sort gate)” value is on record?
A: high polyreactivity

Q: Which “polyreactivity (PSR sort gate)” value does the source give for “QVQLVESGGGLVQAGGSLRLSCAASGFNITYVMGWYRQAPGKERELVAVITNGGSTYYADSVKGRFTISRDNAMNTVYLLMNSLKPEDTAVYYCAARARFRYDSYYYWGQGTQLTVSS” here?
A: high polyreactivity

Q: Which “polyreactivity (PSR sort gate)” value does the source give for “QVQLVESGGGLVQAGVSLRLSCADSGFTFDGYAMGWYRQAPGKERELVAAISDSGDSTYYADSVKGRFTISRDNAKNTVYLHMNSLKPEDTAVYYCAAGLGYYWSDYFAYDYWGQGTQVTVSS” here?
A: low polyreactivity

Q: With “QDQLVESGGGLLQAGGSLRLSCAASGSTIGYYAMGWYRQAPGKERELVAAINSGDSTSYADSVKGRFTISRDNAKNTVYLQMNSLKPEDTAVYYCAVRPRRHQYGYWGQGTQVTVSS” as the sequence, how does the “polyreactivity (PSR sort gate)” value read?
A: low polyreactivity

Q: With “QVQLVESGGGLVQAGGSLRLSCAASGSTFVIYAMGLYTQAPGKERELVAAISRRTGSTYYADSVKGRFTISRYNAKNTVYLQMNSLKPEDTAVYYCAADYRYYTKYYGYLTYYYWGQGTQVTVSS” as the sequence, how does the “polyreactivity (PSR sort gate)” value read?
A: high polyreactivity

Q: Which “polyreactivity (PSR sort gate)” value does the source give for “QVQLVESGGGLVQAGGSLRLSCAASGSTFGKYAMGWYRQAPGKERELVASISRSGASTYYADSVKGRFTISRDNAKNTVYVQMNSQKPEDTAVYYCNKARNPEGYWRYDYWGQGTQVTVSS” here?
A: high polyreactivity

Q: With “QVQLVESGGGLVQAGGSLRLSCAASGFTFWWYAMGWYRQAPGKERQLVAGITSGASTYYADSVKGRYTISRDNAKNTVYLQMNSLKPEDTAVYYCAADWLGWYQPYDYWGQGTQVTVSS” as the sequence, how does the “polyreactivity (PSR sort gate)” value read?
A: low polyreactivity

Q: Which “polyreactivity (PSR sort gate)” value does the source give for “QVQLVESGGGLVQAGGSLRLSCAASGSIFGAYGMGWYRQAPGKEREFVAAITGRGSTTYYADSVKGRFTISRDNAKNTVYLQMTSLKPEDTAVYYCNTRYRGLYHYPMGSWGQGTQVTVSS” here?
A: high polyreactivity

Q: Which “polyreactivity (PSR sort gate)” value does the source give for “QVQLVESGGGLVQAGGSLRLSCAASGSTFRRYAMGWYRQAPGKERELVADISSGGSTYYADSVKGRFTISRDNAKNTVYLQMNSLKPEDTAVYYCNAKTFYYGSRFRRAEYDYWGQGTQVTLSS” here?
A: low polyreactivity

Q: Which “polyreactivity (PSR sort gate)” value does the source give for “QVQLVESGGGLVQAGGSLRLICAASGSTFVEYAMGWYRQAPGKERELVATISYRGTRTYYADSVKGRFTISRDNAKNTVYLQMNSLKPEDTAVYYCAARSWFRTVEYDYWGKGTQVTVSS” here?
A: high polyreactivity

Q: Which “polyreactivity (PSR sort gate)” value does the source give for “QLQLVESGGGLVQAGGSLRLSCAASGSIFRTNVMGWYRQAPGKERELVAAISRRGGSTYYADSVKGRFTISRDNAKNTVYLQMISLKPEDTAVYYCAASSSAYRDDYWGQGTQVTVSS” here?
A: high polyreactivity

Q: Which “polyreactivity (PSR sort gate)” value does the source give for “QVQLGESGGGLVQAGGSLRLSCAASGSTFWPYAMGWYRQAPGKERELVATIRWSGGSTSYADSVKGRFTISRDNAKNTVYLQMNSVKPEDTAVFYCAARDFHYYRFKTYGYWGQGTQVTVSS” here?
A: high polyreactivity

Q: With “QVQLVESGGGLVQAGGSLRLSCAASGRTFFSYTMGWYRPAPGKERELFAAIYDSDGRTYYADSVKVRFTISRDNAKNTVYLQMYSLKPEDTAVYYCAAVPDKYWSRVRRYLFEHNYWGQGTKVTVSS” as the sequence, how does the “polyreactivity (PSR sort gate)” value read?
A: low polyreactivity

Q: For “QVQLVESGGGLVQAGGSLRLSCDGSGSIISAYTMEWYRQAPGKEREYVAAIRWSGDSTYYSDSVKGRFTISRDNAKNTVYLQMNSLKPEDTAVYYCAARDLWFPRYSSRYYYWGQGTQVTVSS”, which “polyreactivity (PSR sort gate)” value is on record?
A: high polyreactivity

Q: For “QVQLVESGGGLVQAGGSLRLSCAASGRMFSAYAMGWYRQAPGKERELVAAITSVGSTKYADSVKGRFTISRDNAKNTVYLQMNSLKPEDTAVYYCAAEYTRSFYIYYRFGYWGQGTQVTVSS”, which “polyreactivity (PSR sort gate)” value is on record?
A: high polyreactivity

Q: With “QVQLVESGGGLVQAGGSLRLSCAASGLILQYYVMGWYRQAPGKERELVAAITRSGGGTYYADSVKGRFTISRDNAKNTVYLQMNSLKPEDTAVYYCADRQPYRFHGSEYDYWGQGTQVNVSS” as the sequence, how does the “polyreactivity (PSR sort gate)” value read?
A: high polyreactivity

Q: For “QVQLVESGGGLFKAGGSLRLSCAASGSTLPGYAMGWYRQAPGKERELVAAITGSGGRTYYADSVKGRFTISRDNAKYTVYLQMNSLKPEDTAVYYCGRGQRVYRSQGDYWGQGSQVTVSS”, which “polyreactivity (PSR sort gate)” value is on record?
A: high polyreactivity

Q: Which “polyreactivity (PSR sort gate)” value does the source give for “QVQLVESGGGLVQAGGSLRLSCAASGSILWVNAMGWYRQAPGKERELVAAITSGGDSTNYADSVKGRFTISRDNAKNTVYLQMNSLKPEDTAVYYCNAEFWLNEDLDYDTSYDYWGQGTQVTVSS” here?
A: low polyreactivity

Q: Which “polyreactivity (PSR sort gate)” value does the source give for “QVQLVESGGGLVQAGGSLRLSCAASGRIFGLYAMGWYRQAPGKERELVAAISRGGGSTYYADSVKGRFTISRDNAKNTVYLQMNSLKPEDTAVYYCATGLGYFSRLDYWGQGTLVTVSS” here?
A: low polyreactivity

Q: For “QVQLLESGGGLVQAGGSLRLSCASSGSIFHTYAMGWYRPAPGKERELVAAISSGGRTYYADSVKGRFTISRDNAKNTVYLQMNSLKPEDTAVYYCAVRPRPGYYYWGQGTQVTVSS”, which “polyreactivity (PSR sort gate)” value is on record?
A: high polyreactivity

Q: Which “polyreactivity (PSR sort gate)” value does the source give for “QVQLVESGGGLVQAGGSLRLSCAASGSTFGGNAMGWYRPAPGKERELVAGITSSGTSTYYADSVKGRFTISRDNAKNTVYLQMNSLKPEDTAVYYCATDEADESYGFELFDYWGQGTQVTVSS” here?
A: low polyreactivity

Q: For “QVQLVESGGGLDQAGGSLRLSCPASGNIFTGNAMGWYRQAPGKEREFVAAISSVGGSTYYADSVKGRFTISRDNAKNTVYLQMNSLKPEDTAVYYCAASRVRYSYGYPYYYWGQGTQVTVSS”, which “polyreactivity (PSR sort gate)” value is on record?
A: high polyreactivity

Q: With “QVQLQESGGGLEQAGGSLRLSCAASGYISDIGTMGWYRQAPGKEREFVATLVVGSTTNYADSVKGRFTISRDNAKNTVYLQPESGRYRGVLLRGWLLAVGKFTYWGQGTQETVSS” as the sequence, how does the “polyreactivity (PSR sort gate)” value read?
A: low polyreactivity

Q: Which “polyreactivity (PSR sort gate)” value does the source give for “QVQLVESGVGLVQAGGSLRLSCAASGRTSAQYGMGWYRQAPGKERELVATITTSGGRTYYADSVKGRFTISRDTAKNTVYLQMNSLKPEDTAVYYGAAEGWTTPTPTSDDNQWWYDYWGQGTQVTVSS” here?
A: high polyreactivity

Q: Which “polyreactivity (PSR sort gate)” value does the source give for “QVQLVESGGGLVQAGGSLRLSCAASGSIFNIYAMGWYRQAPGKERELVATITGIADSTYYADSVKGRFTISRDNAKNTVYLQMNSLKPEDTAVYYCAAIYGSRYTTGQTRRDYYSWGQGTQVTVSS” here?
A: low polyreactivity

Q: Which “polyreactivity (PSR sort gate)” value does the source give for “QVQLVESGGGLVQAGGSLGLSCAASGSIFTNYAMGWYRQAPGKERELVAAISVGGGRTYYADSVKGRFTISRDNAKNTVDLQMNSLKPEDTAVYYCAARYPFGSLGRYGYWGQGTQVTVSS” here?
A: high polyreactivity

Q: Which “polyreactivity (PSR sort gate)” value does the source give for “QVQHVESGGGLVQAGGSLRLSCAASGSIFVPYALGWSRQAPGKEREFVAVISLRGSRTYYADSVKGRFTISRDNAKNTVYLQMNSLKPEDTAVYYCATTGYRLRQATRYDYRGQGTQVTVSS” here?
A: high polyreactivity
